Test in all cases: fluorescence anisotropy
Holding throughout (conditions): 2 mM Mg2+, 20 mM HEPES pH 7.9, 100 mM KCl, 2 mM MgCl2, 0.5 mM EDTA, 1 mM DTT, 0.2 mg/mL BSA, 5 nM 6-FAM-DNA, 25 C

For data set [1], the system named is FL-p53 (thermostable, cysteine-modified mutant) (human).
Another data set concerns TetCT mutant (human).
In the next data set the test system is CoreTet mutant (human).

The source of these data is article PMC6599006, “Rational design using sequence information only produces a peptide that binds to the intrinsically disordered region of p53” (Scientific Reports, 2019).

For the substance nspDNA (random sequence), the Kd (usually the constant that tells how readily two partners part at equilibrium) came to 32 nM in data set [1] (75 uM DP6); 57 nM in data set [1] (150 uM DP6); 55 nM in data set [1] (300 uM DP5); 90 nM in data set [1] (300 uM DP6); 130 nM in data set [1] (450 uM DP6); 61 nM in data set [1] (600 uM DP5). The dissociation constant Kd was determined as 160 nM in data set [1] (600 uM DP6); 49 nM in data set [1] (no DP5 (DP5 series)); 24 nM in data set [1] (no DP6); 340 nM with TetCT mutant (human) (75 uM DP6); 110 nM in the data set with TetCT mutant (human) (no DP6).

As for spDNA (p21), the Kd turned out to be 9.2 nM in data set [1] (75 uM DP6); 12 nM in data set [1] (150 uM DP6); 8.5 nM in data set [1] (300 uM DP5); 20 nM in data set [1] (300 uM DP6); 22 nM in data set [1] (450 uM DP6); 5.3 nM in data set [1] (600 uM DP5). Further, the dissociation constant (Kd) in data set [1] (600 uM DP6) was determined as 21 nM; in data set [1] (no DP5 (DP5 series)) it was 6.6 nM; in data set [1] (no DP6) it was 7.2 nM; in the data set on CoreTet mutant (human) (600 uM DP6) it was 13 nM; in the data set on CoreTet mutant (human) (no DP6), 19 nM.
